Test results from the supplement of paper PMC10126150.
± gives the standard deviation of the averaged measurements.

Tested on: ATP
Assay: switch fluorescence ratio, 500 uM ATP over buffer (Cy3 cluster intensity, sum of 5 cycles each) (fold (ratio)); higher = stronger signal-on switching upon ATP binding; sequences stand for … in TCGTCGGCAGCGTCAGATGTGTATAAGAGACAGTTTTTTTTTTTTTTTTTTTTTTTTT…TC
Settings: aptamer strand: ATP DNA aptamer (quencher-CACCTGGGGGAGTATTGCGGAGGAAGG + anchor), 100 nM annealed; ATP concentration: 500 uM
Method in brief: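 Between each of five buffer/ATP cycles, the flow-cell was stripped with NaOH and re-annealed. Each cycle imaged Cy3-labelled switching-strand clusters, annealed to 100 nM quencher-labelled ATP aptamer on a modified Illumina MiSeq flow-cell, first in selection buffer and then after 15 min with 500 uM ATP at 22 °C. The fluorescence ratio is summed target-cycle over summed buffer-cycle Cy3 intensity per cluster, averaged per switch-domain sequence, with clusters outside 100-1000 RFU excluded.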
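Further: ATP exposure 15 min at 22 °C before imaging.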

Point of comparison: TGTGCGGGTT, switch fluorescence ratio 1.02 ± 0.02. Against it:
- TGTGAAGGTT — within error, 0.986 ± 0.054
- TGTGACGGGG — the same, 1.02 ± 0.035
- TGTGAGATTG — within error, 1 ± 0.033
- TGTGAGTTAG — within error, 1 ± 0.025
- TGTGAGTTGC — lower, 0.949 ± 0.0069
- TGTGATAGTG — within error, 0.999 ± 0.053
- TGTGATAGTT — within error, 0.999 ± 0.015
- TGTGATATAT — lower, 0.9877 ± 0.0011
- TGTGATGATG — lower, 0.947 ± 0.036
- TGTGATTGGG — within error, 0.988 ± 0.017
- TGTGATTTTT — within error, 1.01 ± 0.028
- TGTGCACATT — the same, 1.02 ± 0.024
- TGTGCAGCG — the same, 1.02 ± 0.022
- TGTGCGACCT — higher, 1.16 ± 0.043
- TGTGCGGGGG — the same, 1.02 ± 0.019
- TGTGCTATTG — within error, 0.983 ± 0.058
- TGTGGAAAAT — within error, 1.03 ± 0.074
- TGTGGAAAGG — within error, 1 ± 0.014
- TGTGGCAGGT — within error, 0.982 ± 0.031
- TGTGGCCGGG — within error, 0.998 ± 0.024
- TGTGGCCGTT — within error, 1.03 ± 0.059
- TGTGGGAAAT — within error, 0.988 ± 0.016
- TGTGGGATGG — within error, 1 ± 0.028
- TGTGGGCTGG — the same, 1.02 ± 0.012
- TGTGGGGCCA — lower, 0.96 ± 0.038
- TGTGGGGCTG — the same, 1.02 ± 0.08
- TGTGGGGGAG — within error, 1.03 ± 0.035
- TGTGGGGGGA — within error, 0.983 ± 0.037
- TGTGGGGTTG — within error, 0.994 ± 0.033
- TGTGGGTAAA — within error, 1.01 ± 0.042
- TGTGGGTCCG — within error, 1 ± 0.036
- TGTGGTGGAG — lower, 0.9617 ± 0.0071
- TGTGGTGGTG — within error, 0.978 ± 0.049
- TGTGGTTGGG — within error, 0.989 ± 0.027
- TGTGTAAAGG — within error, 1.04 ± 0.042
- TGTGTAAGGC — within error, 1.03 ± 0.038
- TGTGTAGTTG — lower, 0.9821 ± 0.0042
- TGTGTATGGG — within error, 1.19 ± 0.28
- TGTGTATTCC — within error, 1.05 ± 0.037
- TGTGTGAGAA — within error, 0.997 ± 0.022
- TGTGTGCAAT — higher, 1.0784 ± 0.001
- TGTGTGGCGT — within error, 1.003 ± 0.0042
- TGTGTGGGTT — within error, 1.01 ± 0.035
- TGTGTGTATG — within error, 0.999 ± 0.036
- TGTGTTAAAT — within error, 1.04 ± 0.011
- TGTGTTGCCT — within error, 1.05 ± 0.015
- TGTGTTGGGG — lower, 0.969 ± 0.024
- TGTGTTGTTT — within error, 1 ± 0.044
- TGTGTTTTCG — within error, 1 ± 0.014
- TGTTAAACGC — lower, 0.945 ± 0.03
- TGTTAAAGGG — within error, 1.03 ± 0.024
- TGTTAAAGTT — lower, 0.9908 ± 0.0045
- TGTTAAATTT — within error, 1.01 ± 0.045
- TGTTAATCTG — within error, 0.994 ± 0.021
- TGTTAATGTT — within error, 1 ± 0.029
- TGTTACCGG — within error, 1.004 ± 0.0037
- TGTTACGGGG — lower, 0.98654 ± 0.00045
- TGTTACTTAT — within error, 1.05 ± 0.016
- TGTTAGGGGG — within error, 1.01 ± 0.014
- TGTTAGGGTG — within error, 1.04 ± 0.033
- TGTTAGTCTG — within error, 1.03 ± 0.032
- TGTTAGTTAC — within error, 1.03 ± 0.025
- TGTTAGTTAT — within error, 1.06 ± 0.066
- TGTTAGTTGG — within error, 1.004 ± 0.0038
- TGTTATAATT — within error, 1 ± 0.0048
- TGTTATAGCC — within error, 1.03 ± 0.04
- TGTTATATAG — within error, 1.01 ± 0.033
- TGTTATTGAT — the same, 1.02 ± 0.029
- TGTTATTGGC — within error, 1.08 ± 0.084
- TGTTATTTTG — within error, 0.989 ± 0.041
- TGTTCAGGGA — higher, 1.048 ± 0.0073
- TGTTCGGGTG — within error, 1.05 ± 0.022
- TGTTCGTCGT — lower, 0.9693 ± 0.0039
- TGTTCTACAG — within error, 1 ± 0.02
- TGTTCTCAAA — lower, 0.98346 ± 0.00079
- TGTTCTTTTT — within error, 0.993 ± 0.038
- TGTTGACAGT — within error, 1.01 ± 0.021
- TGTTGACTGA — the same, 1.02 ± 0.023
- TGTTGAGTAT — lower, 0.9738 ± 0.0072
- TGTTGGACTA — within error, 0.9992 ± 0.0065
- TGTTGGAGCG — lower, 0.969 ± 0.011
- TGTTGGAGGA — within error, 0.994 ± 0.028
- TGTTGGAGGC — lower, 0.9713 ± 0.0072
- TGTTGGCCGG — within error, 0.991 ± 0.026
- TGTTGGCTTT — within error, 1.06 ± 0.022
- TGTTGGGAGA — within error, 1 ± 0.025
- TGTTGGGGCG — the same, 1.02 ± 0.069
- TGTTGGGGGG — within error, 1.01 ± 0.057
- TGTTGGGGGT — lower, 0.962 ± 0.034
- TGTTGGGGTT — within error, 1.01 ± 0.018
- TGTTGGGTGC — within error, 0.996 ± 0.037
- TGTTGGTGTC — within error, 0.987 ± 0.07
- TGTTGGTTCG — within error, 0.97 ± 0.062
- TGTTGTAATG — within error, 0.9974 ± 0.0033
- TGTTGTATGC — lower, 0.9617 ± 0.0042
- TGTTGTATTG — lower, 0.9761 ± 0.0066
- TGTTGTGGGA — lower, 0.979 ± 0.019
- TGTTGTGTAG — lower, 0.977 ± 0.021
- TGTTGTTTGC — lower, 0.982 ± 0.014
